Assays:
Experiment in all cases: cell-based or functional assay
[1] = biological target: LepR-IRS1 bait receptor (pMET7 LepR-IRS1) (mouse; human) (UniProt P48356)
[2] = biological target: LepR Y985/1077F mutant (pMET7 LepRY985/1077F) (mouse) (UniProt P48356)
[3] = biological target: EpoR/LepR-F3-p53 chimeric bait receptor (pSEL1-p53) (human; mouse) (UniProt P19235)
[4] = biological target: βc/LepR-F3-Smad3 + GM-CSFRα/LepR-F3-ALK4CA heteromeric bait receptor (Example 8, transfection b) (mouse; human) (UniProt P32927)
[5] = biological target: βc/LepR-F3-ALK4CA + GM-CSFRα/LepR-F3-Smad3 heteromeric bait receptor (Example 8, transfection a) (mouse; human) (UniProt P32927)
[6] = biological target: EpoR/LepR-F3-EpoR chimeric bait receptor (pSEL1-EpoR) (human; mouse) (UniProt P19235)
Chain of EpoR/LepR-F3-EpoR chimeric bait receptor (pSEL1-EpoR) (human; mouse) (P19235 other isoform, or with tags, fused parts or gaps mutant limits assumed, form in doubt): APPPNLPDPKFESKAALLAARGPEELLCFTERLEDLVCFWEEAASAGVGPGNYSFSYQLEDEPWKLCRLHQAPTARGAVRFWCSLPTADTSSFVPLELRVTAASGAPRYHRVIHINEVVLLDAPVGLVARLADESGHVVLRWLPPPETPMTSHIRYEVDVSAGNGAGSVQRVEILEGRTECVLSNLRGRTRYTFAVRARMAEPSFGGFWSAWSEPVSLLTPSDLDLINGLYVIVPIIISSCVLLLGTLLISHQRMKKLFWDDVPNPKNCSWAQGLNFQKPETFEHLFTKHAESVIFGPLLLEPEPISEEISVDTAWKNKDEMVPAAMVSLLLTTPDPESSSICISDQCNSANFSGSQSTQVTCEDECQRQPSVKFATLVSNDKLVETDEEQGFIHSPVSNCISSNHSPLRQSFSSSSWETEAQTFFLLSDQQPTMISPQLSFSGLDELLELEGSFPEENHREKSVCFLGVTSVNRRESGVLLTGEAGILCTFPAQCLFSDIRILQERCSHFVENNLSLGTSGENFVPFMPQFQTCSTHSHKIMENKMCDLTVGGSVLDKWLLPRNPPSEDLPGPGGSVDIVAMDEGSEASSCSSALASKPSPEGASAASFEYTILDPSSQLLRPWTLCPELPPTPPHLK

Chain of flag-gp130-SVT prey (pMG1-SVT; pMET7-flag-gp130-SVT) (P40189 761-918, tags or fused parts left off): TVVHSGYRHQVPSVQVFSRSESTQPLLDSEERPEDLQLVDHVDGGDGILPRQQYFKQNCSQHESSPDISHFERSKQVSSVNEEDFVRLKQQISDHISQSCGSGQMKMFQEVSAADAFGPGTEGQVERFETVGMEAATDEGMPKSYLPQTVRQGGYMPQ
Chain of EpoR/LepR-F3-p53 chimeric bait receptor (pSEL1-p53) (human; mouse) (P19235 other isoform, or with tags, fused parts or gaps mutant limits assumed, form in doubt): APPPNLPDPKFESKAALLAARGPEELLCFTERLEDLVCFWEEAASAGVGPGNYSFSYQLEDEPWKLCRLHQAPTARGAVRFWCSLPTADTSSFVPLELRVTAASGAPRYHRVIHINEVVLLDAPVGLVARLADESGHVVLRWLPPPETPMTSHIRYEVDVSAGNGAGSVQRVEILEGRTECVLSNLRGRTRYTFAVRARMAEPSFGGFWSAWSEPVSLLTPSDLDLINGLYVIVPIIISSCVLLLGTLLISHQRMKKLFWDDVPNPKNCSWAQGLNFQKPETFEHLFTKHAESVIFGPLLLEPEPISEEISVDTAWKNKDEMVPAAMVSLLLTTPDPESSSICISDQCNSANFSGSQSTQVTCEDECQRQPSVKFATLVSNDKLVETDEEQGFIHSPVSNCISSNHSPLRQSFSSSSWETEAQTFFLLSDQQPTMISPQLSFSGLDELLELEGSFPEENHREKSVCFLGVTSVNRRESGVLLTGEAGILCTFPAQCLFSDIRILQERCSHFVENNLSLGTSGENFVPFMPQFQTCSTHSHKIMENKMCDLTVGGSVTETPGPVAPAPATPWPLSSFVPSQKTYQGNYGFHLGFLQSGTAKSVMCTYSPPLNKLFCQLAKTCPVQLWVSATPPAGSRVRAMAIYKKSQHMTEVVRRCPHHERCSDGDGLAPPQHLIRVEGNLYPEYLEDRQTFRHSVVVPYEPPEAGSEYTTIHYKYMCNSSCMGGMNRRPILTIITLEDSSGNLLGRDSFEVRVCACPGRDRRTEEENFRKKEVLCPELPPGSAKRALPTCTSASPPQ
Chain of LepR Y985/1077F mutant (pMET7 LepRY985/1077F) (mouse) (P48356 other isoform, or with tags, fused parts or gaps mutant): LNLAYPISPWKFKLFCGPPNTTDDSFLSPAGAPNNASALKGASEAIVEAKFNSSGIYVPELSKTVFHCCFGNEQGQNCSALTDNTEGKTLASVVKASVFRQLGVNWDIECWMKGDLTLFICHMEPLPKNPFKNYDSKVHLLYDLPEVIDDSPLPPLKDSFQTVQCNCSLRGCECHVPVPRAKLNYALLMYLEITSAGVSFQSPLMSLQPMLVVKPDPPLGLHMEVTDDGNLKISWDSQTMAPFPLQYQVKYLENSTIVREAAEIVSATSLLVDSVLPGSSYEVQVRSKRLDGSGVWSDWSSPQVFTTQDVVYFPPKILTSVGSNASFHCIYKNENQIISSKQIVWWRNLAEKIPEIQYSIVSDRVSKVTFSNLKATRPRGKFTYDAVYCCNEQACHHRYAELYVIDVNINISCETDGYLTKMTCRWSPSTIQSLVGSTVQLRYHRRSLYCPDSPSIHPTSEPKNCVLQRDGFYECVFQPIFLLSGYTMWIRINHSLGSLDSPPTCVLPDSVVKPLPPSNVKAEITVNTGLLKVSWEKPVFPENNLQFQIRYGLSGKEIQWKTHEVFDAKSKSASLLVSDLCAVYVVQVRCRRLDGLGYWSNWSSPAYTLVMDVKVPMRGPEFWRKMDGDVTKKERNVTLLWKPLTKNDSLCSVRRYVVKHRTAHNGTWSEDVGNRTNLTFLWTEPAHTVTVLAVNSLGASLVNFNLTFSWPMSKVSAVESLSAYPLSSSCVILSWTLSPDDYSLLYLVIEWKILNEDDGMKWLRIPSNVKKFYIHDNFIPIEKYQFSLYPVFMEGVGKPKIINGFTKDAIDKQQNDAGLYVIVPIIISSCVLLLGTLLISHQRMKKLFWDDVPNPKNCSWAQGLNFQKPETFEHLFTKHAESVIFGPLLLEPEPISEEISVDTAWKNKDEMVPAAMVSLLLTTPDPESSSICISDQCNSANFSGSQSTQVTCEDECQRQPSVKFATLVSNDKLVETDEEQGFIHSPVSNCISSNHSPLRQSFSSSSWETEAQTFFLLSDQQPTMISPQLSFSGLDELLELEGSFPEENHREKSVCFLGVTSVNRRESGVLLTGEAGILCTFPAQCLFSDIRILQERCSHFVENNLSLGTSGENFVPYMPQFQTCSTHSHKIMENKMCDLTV

“flag-gp130-GRB2S prey (pMG1-GRB2S) (from UniProt P40189 761-918; P62993 60-158)” gave a luciferase activity (rPAP1 promoter), fold induction, leptin co-stimulated with forskolin [1] of 2.5 fold.
With “recombinant human leptin (R&D systems) (from UniProt P41159 22-167) (ligand)” the luciferase activity (rPAP1-luci reporter), fold induction, leptin [2] was 33.2 fold and the luciferase activity (rPAP1-luci reporter), fold induction, leptin co-stimulated with forskolin [2] was 37.6 fold.
Substance “flag-gp130-SVT prey (pMG1-SVT; pMET7-flag-gp130-SVT) (from UniProt P40189 761-918; P03070 261-708)” has a luciferase activity (rPAP1-luci reporter), fold induction, erythropoietin [3] of 9.4 fold and a luciferase activity (rPAP1-luci reporter), fold induction, erythropoietin plus forskolin [3] of 14.6 fold.
Work on “pMG2-Smad4 prey (flag-gp130 with 6 STAT recruitment sites fused to human Smad4) (from UniProt Q13485 4-552)” yielded a luciferase activity (rPAP1 promoter), fold induction, GM-CSF [4] of 9 fold, a luciferase activity (rPAP1 promoter), fold induction, GM-CSF co-stimulated with forskolin [4] of 71 fold and a luciferase activity (rPAP1 promoter), fold induction, GM-CSF [5] of 3 fold. The luciferase activity (rPAP1 promoter), fold induction, GM-CSF co-stimulated with forskolin [5] was 37 fold.
“flag-gp130-CIS prey (pMG1-CIS) (from UniProt P40189 761-918; Q62225 2-257)” showed a luciferase activity (rPAP1-luci reporter), fold induction, erythropoietin [6] of 6.2 fold and a luciferase activity (rPAP1-luci reporter), fold induction, erythropoietin plus forskolin [6] of 10.5 fold.
In the case of “flag-gp130-VavS prey (pMG1-VavS) (from UniProt P40189 761-918; P15498 259-789)”, the luciferase activity (rPAP1 promoter), fold induction, leptin [1] was 5.2 fold and the luciferase activity (rPAP1 promoter), fold induction, leptin co-stimulated with forskolin [1] was 12 fold.

From patent US20030100021A1
